Molecular target: ZIKV sE (strain PF13) (Zika virus, strain PF13)
Experiment: SEC-MALS

Substance “ZIKV sE (strain PF13) (domain or fragment)” has a stoichiometry N of 2.

From article doi:10.1101/2022.12.06.519383
